One molecule from article PMC4733404 (Cell, 2016) can be followed below.

This experiment addresses EBOV GP, soluble form of the full-length extracellular domain (Zaire ebolavirus, strain  …, UniProt Q05320). The experiment can be described thus: ELISA. (In general: An ELISA detects its analyte on a solid surface through an enzyme-linked reagent.)

Sequence of EBOV GP, soluble form of the full-length extracellular domain (Q05320 33-650): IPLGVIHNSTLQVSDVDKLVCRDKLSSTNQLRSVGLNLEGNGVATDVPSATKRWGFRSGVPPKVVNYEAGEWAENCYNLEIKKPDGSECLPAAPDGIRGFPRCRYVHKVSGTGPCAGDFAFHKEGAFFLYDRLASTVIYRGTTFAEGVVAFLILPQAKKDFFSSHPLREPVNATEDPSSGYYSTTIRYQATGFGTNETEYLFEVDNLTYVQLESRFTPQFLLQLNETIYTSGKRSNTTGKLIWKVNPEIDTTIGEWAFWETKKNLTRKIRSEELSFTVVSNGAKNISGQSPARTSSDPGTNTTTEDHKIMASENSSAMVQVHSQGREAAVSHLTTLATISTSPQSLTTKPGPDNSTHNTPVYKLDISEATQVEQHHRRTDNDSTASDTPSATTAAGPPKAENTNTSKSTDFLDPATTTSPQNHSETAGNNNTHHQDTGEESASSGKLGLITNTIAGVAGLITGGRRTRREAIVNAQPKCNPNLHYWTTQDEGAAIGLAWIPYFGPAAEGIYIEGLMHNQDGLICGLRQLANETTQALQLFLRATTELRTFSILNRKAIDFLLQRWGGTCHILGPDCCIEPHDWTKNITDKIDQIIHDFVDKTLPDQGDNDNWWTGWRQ

B1: BDBV289, human mAb (antibody, V domains shown)
VH: QVQLVQSGAEVKKPGSSVKVSCKASGATFGSDTVTWVRQAPGQGLEWMGGIIPFFGEANYAQRFQGRVTITADKSTNTAYMELSSLRSEDTAVYFCARQINEMATFGEIHYYTYMDVWGQGTLVTVSS
VL: GSELTQDPAVSVALGQTVRITCQGDSLRNYYASWYQQKPRQAPVLVFYGKNNRPSGIPDRFSGSSSGNTASLTISGAQAEDEADYYCNSRDSSSNHLVFGGGTKLTVL
B1: the binding result is “binds”.
